From the supplement of paper PMC7125110
± gives the standard error. This sample holds only a part of the variants without activity.

B1: glmS ribozyme (parent)
chain: AUAAAAGCGCCAGAACUACAGAAAUGUAGUUGACGAGGAGGAGGUUUAUCGAAUUUUCGGCGGAUGCCUCCAAA

Variants of: B1
Experiment: self-cleavage kobs at 2500 uM GlcN6P; higher = faster cleavage; RNA array
Conditions: with glucosamine-6-phosphate
How it was run: (§1)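 Tiles of sequenced MiSeq chips were imaged over ~14 h at 37 °C. On them, barcoded ribozyme variants had been transcribed in situ by E. coli RNA polymerase and were tracked via a hybridised Cy3 probe while glucosamine-6-phosphate (40 μM to 10 mM) in HEPES/KCl/Mg(OAc)2 buffer flowed in. Per-tile medians, normalised to baseline and to non-cleaving reference variants, were fit to one- or two-exponential decays for kobs, and weighted Michaelis–Menten fits gave kcat and KM.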

self-cleavage kobs at 2500 uM GlcN6P, 0.000527 ± 0.00016 s⁻¹:
A12C U45A C67G

self-cleavage kobs at 2500 uM GlcN6P, 0.00011 ± 4.2e-05 s⁻¹:
A12C A33G C34U C50A A64U C70G

self-cleavage kobs at 2500 uM GlcN6P, 0.000136 ± 5.1e-05 s⁻¹:
C11U A15G G37C U47C U69G

self-cleavage kobs at 2500 uM GlcN6P, 7.8e-05 ± 2.7e-05 s⁻¹:
C10U C11A C70A

self-cleavage kobs at 2500 uM GlcN6P, 6.38e-05 ± 2.6e-05 s⁻¹:
A12G A14C A15C

self-cleavage kobs at 2500 uM GlcN6P, 5.5e-05 ± 1.8e-05 s⁻¹:
C11A U56A C67G

self-cleavage kobs at 2500 uM GlcN6P, 7.89e-05 ± 2.3e-05 s⁻¹:
C10G A14U G29C U49A A52G C67G

self-cleavage kobs at 2500 uM GlcN6P, 6.16e-05 ± 1.7e-05 s⁻¹:
A12G G21U U47G U65A

self-cleavage kobs at 2500 uM GlcN6P, 0.0011 ± 0.0003 s⁻¹:
C11U U31C G41U A64G C70A

self-cleavage kobs at 2500 uM GlcN6P, 0.000126 ± 4.3e-05 s⁻¹:
C10A C11U C70A

self-cleavage kobs at 2500 uM GlcN6P, 0.000684 ± 0.00034 s⁻¹:
C11U A14G A33G C68A C71A

self-cleavage kobs at 2500 uM GlcN6P, 7.64e-05 ± 1.7e-05 s⁻¹:
G13C C16U C71U

self-cleavage kobs at 2500 uM GlcN6P, 7.58e-05 ± 2.6e-05 s⁻¹:
C11U U31A G32A G38A C70G

self-cleavage kobs at 2500 uM GlcN6P, 5.4e-05 ± 1.8e-05 s⁻¹:
C8G A36G G38A A52G U65G U69G

self-cleavage kobs at 2500 uM GlcN6P, 0.00179 ± 0.0004 s⁻¹:
A12U U47G U65G

self-cleavage kobs at 2500 uM GlcN6P, < 1e-05 s⁻¹:
A12G G43U A48C U69G
C11A C34G A36U G40A A52G A53U
C10U G29U U57C
C8U G9C C11G A14C U45G C50G C71G
C10U C11U A15C C34A
G9C A15G U45G
G9U G63C G66U C70A
G9C G32C C70A
G9U U31C G43C C67U
C11U C34G A52U
C11U A15G G29U
C11G G35A C61A
A12U A33G G38U G44U G59A
C8G G32A U54G
C10G A42C U65G
G13A G35A G44A
A12G G32U C34U A53U
C11G A52U C68U
G9C C11A G63C
C8U C11U U30A A52C U69G
G9C G40U C67U
C10U A48C C58U
C11U A15U G41C
G9A A14G G41U
C11A A14C A42C U55C A64G
C8G G9C G41A G60C C61A C68G
G9U A15C C68U
C8U C11U A39C G51A G62C
A12U C16U G43C G62C C70U
A12U A33U G37U U56A
A12G A15G G44A U54A C61U
C11A A12U G32U C50U U56A C58A
C10A U47C G62U
G13C A33C U47C A64U C70A
G9C A42C A52C G66C
C10U G13U A52U
A12C A15U U46A C71A
C8G A39U C71A
A12C A15U G62A
C8A G32U G59A
C11G G13C C50A A53G U55A
G9A C34A U49G
G13C A15U G41U A42G G43C
C8A G41A G44U
C8U A12U A48U G62C U65A
G13A G35A A42U
C8A G37A G41U A48U C50G U55A
C10U C11A G41A U55C C58G
C11U G13C U46G A64U
G9U A12C U30C
C8U A14U G32U G41C C67U
C10U G51U G60U
G9A U30A
C10G A14C A48C C50U
G9C U49A G51A C70U C71A
C11U C34A G44A
C11A G35U C58G
C11A G29U A33C G63C
C10G G41A
G9A A14C A15G G35C A39G A52C A53G
C8G G35A G43C U69G

self-cleavage kobs at 2500 uM GlcN6P, 0.000147 ± 2.7e-05 s⁻¹:
A12U A39U A48U

self-cleavage kobs at 2500 uM GlcN6P, 0.000861 ± 0.00015 s⁻¹:
A12U A14G G32U

self-cleavage kobs at 2500 uM GlcN6P, 4.85e-05 ± 2.2e-05 s⁻¹:
C10A G60C G63C C67A C68G C70G C71U

self-cleavage kobs at 2500 uM GlcN6P, 5.86e-05 ± 1e-05 s⁻¹:
A12G U54A C68G

self-cleavage kobs at 2500 uM GlcN6P, 0.000126 ± 4.8e-05 s⁻¹:
A12U G29U U30A U31A

Variants of: B1
Experiment: self-cleavage kobs at 10000 uM GlcN6P; higher = faster cleavage; RNA array
Conditions: with glucosamine-6-phosphate
How it was run: as §1

self-cleavage kobs at 10000 uM GlcN6P, 0.000361 ± 0.00013 s⁻¹:
A12U G29U U30A U31A

self-cleavage kobs at 10000 uM GlcN6P, < 1e-05 s⁻¹:
C11U C34G A52U
G9U A15C C68U
C10A U47C G62U
C11U G13C U46G A64U
C10U G51U G60U

self-cleavage kobs at 10000 uM GlcN6P, 0.00275 ± 0.00043 s⁻¹:
A12U A14G G32U

self-cleavage kobs at 10000 uM GlcN6P, 0.000169 ± 5.1e-05 s⁻¹:
G13C C16U C71U
